Experimental data from PMC10816986, “The Role of Key Amino Acids of the Human Fe(II)/2OG-Dependent Dioxygenase ALKBH3 in Structural Dynamics and Repair Activity toward Methylated DNA” (International Journal of Molecular Sciences, 2024).

Tests used:
[1] = Far-UV CD spectroscopy, secondary structure content (BeStSel); assay type: physicochemical
Procedure: To assess the effect of key amino acid substitution on the ALKBH3’s secondary structure content circular CD spectra of each protein variant in the apo state were recorded in accordance with experimental conditions optimized in our previous study.
The secondary structure content was determined by processing experimental spectra using the […] (BeStSel, Budapest, Hungary) and CDSSTR (DichroWeb, London, UK) algorithms. […] A detailed description of the parameter optimization process for each algorithm is provided in our recent work. The BeStSel package was selected for further analysis as it provides more information regarding the structural organization of the protein. As follows from data summarized in Table 3, antiparallel β-strands predominate in the structure of the wild-type ALKBH3 (37.6%), with a considerable portion existing in right-twisted and relaxed conformations. The protein sequence also contains a significant number of loop motifs (12.6%) and poorly ordered structures (~44.7%), which may constitute the N-terminal domain. Only 5.2% of the amino acid sequence is composed of α-helices. Utilizing the protein architecture and topology prediction feature available in BeStSel, it was established that the obtained CD spectrum belongs (with a probability of 96%) to the class of β-proteins with a sandwich or β-barrel architecture. Such a distribution corresponds to the structure of ALKBH3 determined by X-ray crystallography for a truncated form of the enzyme lacking 69 amino acids from the N-terminus (PDB 2IUW). Specifically, the β7-β14 strands form two antiparallel sheets of a central “jellyroll” fold, which constitutes the catalytically active DSBH domain (Figure 1). Thus, the CD method we selected enabled us to determine the composition of the secondary structure of ALKBH3 with a high degree of precision.
Far-UV CD spectra from 185 to 280 nm were recorded using a J600 spectrometer (Jasco, Tokyo, Japan) in a 0.1 cm path lengths quartz cuvette (Starna Cells, CA, USA). In all cases, the protein sample (~50 nmol) was dialyzed two times against the CD buffer containing 10 mM of Potassium Phosphate (pH 7.8) and 50 mM of (NH4)2SO4. […] Data were corrected for a baseline by subtraction of the buffer spectrum and expressed as mean residue ellipticity [θ] […] To estimate the secondary structures, each spectrum between […] and 250 nm was analyzed by both the DichroWeb and BeStSel online programs using the CDSSTR method.
Figure 5 Far-UV CD spectra of wt (blue), Y143F (yellow), Y143A (green), L177A (red), and H191A (purple) ALKBH3 collected from 0.2 mg/mL protein at 11 °C in the absence of ligands. Each spectrum was measured three times, corrected for background, averaged, and expressed as mean residue ellipticity θ (deg·cm^2·dmol^−1).

[2] = Equilibrium fluorescence titration with Ni(II); assay type: binding; conditions: 1 µM apoprotein, 25 °C; read-out: Dissociation constant Kd, Ni(II)
Description: (§1) To investigate the impact of selected mutations on ALKBH3’s ability to bind its cofactor, co-substrate, and methylated DNA, the fluorescent titration method was employed. It is well-established that enzyme–ligand binding typically leads to a protein conformational change, which in turn can alter the fluorescence intensity of tryptophan and tyrosine residues within the protein sequence. […] In this study, transitional metals (Fe(II), Ni(II), and Co(II)), 2OG, and the m3C substrate served as titrants. Protein fluorescence quenching was measured after the addition of an excess of the ligand to 1 µM of enzyme (Supplementary Figure S2). To determine the equilibrium dissociation constant’s Kd values, the resulting titration curves were analyzed using a non-linear regression algorithm (see Section 4.3 of “Materials and Methods” for details). […] As indicated by the data presented in Table 2, the stability of the wt ALKBH3 apoenzyme’s affinity to various ligands and damaged DNA generally corresponds to the stability of such complexes for AlkB and ALKBH2 enzymes. […] The binding of Ni(II) and Co(II) ions of similar radii was weakened by approximately two-fold. […] This behavior is more characteristic of the bacterial homolog AlkB rather than human ALKBH2 [7].
(§2) The intrinsic tryptophan fluorescence quenching was monitored at the maximum of emission (345 nm, in most cases) using an excitation wavelength of 280 nm, and 5 nm slits. An amount of 2 mM of (NH4)2Fe(SO4)2·6H2O, 2 mM of NiSO4×7H2O, 2 mM of CoSO4·7H2O, 2 mM of 2OG, or 100 µM of m3C substrate was titrated into 1 µM of apoprotein (a free enzyme with no metal or 2OG added) in the presence of 50 mM of HEPES-KOH (pH 7.8), 50 mM of KCl, and 10 mM of MgCl2. When titrating with DNA, the buffer was supplemented with 2 mM of EDTA. The dissociation constant Kd for a model of one-step binding (E + L ↔ EL) was determined using Equations (2)–(5) and a non-linear regression algorithm in the OriginPro 8.1 software (OriginLab Corp., Northampton, MA, USA):(2) Kd=E[L]/[EL] (3) F=f0+f1E+f2[EL] (4) e0=E+[EL] (5) l0=L+[EL] where F is the observed fluorescence intensity at any given ligand (L) concentration; f0 is the background fluorescence; f1 and f2 are partial fluorescence intensities of the free enzyme (E) and enzyme–ligand complex (EL), respectively; e0 and l0 are total concentrations of the enzyme and ligand.
(§3) Figure S2. Equilibrium binding of the wild-type and mutant ALKBH3 proteins to transition metals, 2OG, or m3C-containing DNA. The quenching of the enzyme ﬂuorescence is shown as a function of Fe(II) (A), Ni(II) (B), Co(II) (C), 2OG ( D), and single-stranded m3C substrate (E). The protein concentration was 1 µM. In the course of titration by Fe(II), a sodium ascorbate (1mM) was added to keep the metal in a reduced state. Experimental data points were ﬁtted to a single-site binding mode l (see “Materials and Methods”). Each trace represents the average of three technical […]
(§4) (1 picture or pasted object on this page, not shown here)

m3C substrate = test: Equilibrium fluorescence titration with methylated DNA; assay type: binding; conditions: for Kd: 1 µM apoprotein, 2 mM EDTA, 25 °C, read-out: Dissociation constant Kd, m3C substrate; for weakening of contacts with the DNA substrate relative to wt: ratio of Kd for m3C substrate
Description: as §1
The affinity of the active site of ALKBH3 for methylated DNA was studied using the m3C substrate without fluorescent labels (see Section 4). […] The replacement of key amino acids leads to an approximate 1.4-fold weakening of contacts with the DNA substrate for the Y143F mutant, 2.3-fold for Y143A, 2-fold for L177A, and 1.5-fold for H191A. Therefore, the removal of the bulky side chain of Tyr143 dramatically affects the ability of ALKBH3 to bind damaged DNA, while withdrawal of its OH group only slightly weakens protein–DNA interactions.
as §2, §3, §4

Row | Molecule | Kd [2] [µM] | Kd (m3C substrate) [µM] | α-helices, total ([1]; sum of Table 3 components) [%] | increase in α-helical content over wt ALKBH3 [1] | weakening of contacts with the DNA substrate relative to wt (m3C substrate) [fold]
1 | Y143A ALKBH3: ALKBH3 mutant, Tyr143 replaced with Ala (protein, UniProt Q96Q83 1-286, looked up, variant Y143A) Alpha-ketoglutarate-dependent …: MEEKRRRARVQGAWAAPVKSQAIAQPATTAKSHLHQKPGQTWKNKEHHLSDREFVFKEPQQVVRRAPEPRVIDREGVYEISLSPTGVSRVCLYPGFVDVKEADWILEQLCQDVPWKQRTGIREDITYQQPRLTAWYGELPYTASRITMEPNPHWHPVLRTLKNRIEENTGHTFNSLLCNLYRNEKDSVDWHSDDEPSLGRCPIIASLSFGATRTFEMRKKPPPEENGDYTYVERVKIPLDHGTLLIMEGATQADWQHRVPKEYHSREPRVNLTFRTVYPDPRGAPW | 60 ± 7 | 6.3 ± 0.6 | – | 3 fold | ~2.3
2 | H191A ALKBH3: ALKBH3 mutant, His191 replaced with Ala (protein, UniProt Q96Q83 1-286, looked up, variant H191A) Alpha-ketoglutarate-dependent …: MEEKRRRARVQGAWAAPVKSQAIAQPATTAKSHLHQKPGQTWKNKEHHLSDREFVFKEPQQVVRRAPEPRVIDREGVYEISLSPTGVSRVCLYPGFVDVKEADWILEQLCQDVPWKQRTGIREDITYQQPRLTAWYGELPYTYSRITMEPNPHWHPVLRTLKNRIEENTGHTFNSLLCNLYRNEKDSVDWASDDEPSLGRCPIIASLSFGATRTFEMRKKPPPEENGDYTYVERVKIPLDHGTLLIMEGATQADWQHRVPKEYHSREPRVNLTFRTVYPDPRGAPW | 50 ± 4 | 4.3 ± 0.3 | – | up to 3.1 fold | ~1.5

Further molecules by falling Kd [2], results first:

Row | Kd [2] [µM] | Kd (m3C substrate) [µM] | Molecule | α-helices, total ([1]; sum of Table 3 components) [%] | increase in α-helical content over wt ALKBH3 [1] | weakening of contacts with the DNA substrate relative to wt (m3C substrate) [fold]
3 | 90 ± 10 | 5.7 ± 0.3 | L177A ALKBH3: ALKBH3 mutant, Leu177 replaced with Ala (protein, UniProt Q96Q83 1-286, looked up, variant L177A) Alpha-ketoglutarate-dependent …: MEEKRRRARVQGAWAAPVKSQAIAQPATTAKSHLHQKPGQTWKNKEHHLSDREFVFKEPQQVVRRAPEPRVIDREGVYEISLSPTGVSRVCLYPGFVDVKEADWILEQLCQDVPWKQRTGIREDITYQQPRLTAWYGELPYTYSRITMEPNPHWHPVLRTLKNRIEENTGHTFNSLACNLYRNEKDSVDWHSDDEPSLGRCPIIASLSFGATRTFEMRKKPPPEENGDYTYVERVKIPLDHGTLLIMEGATQADWQHRVPKEYHSREPRVNLTFRTVYPDPRGAPW | – | 2.7 fold | ~2
4 | 42 ± 4 | 2.8 ± 0.1 | wt ALKBH3: wild-type human Fe(II)/2OG-dependent dioxygenase ALKBH3 with N-terminal His-tag, expressed in E. coli (protein, UniProt Q96Q83 1-286, looked up, N-terminal His-tag, wild-type human Fe(II)/2OG-dependent dioxygenase ALKBH3 with N-terminal His-tag, expressed in E. coli) Alpha-ketoglutarate-dependent …: MEEKRRRARVQGAWAAPVKSQAIAQPATTAKSHLHQKPGQTWKNKEHHLSDREFVFKEPQQVVRRAPEPRVIDREGVYEISLSPTGVSRVCLYPGFVDVKEADWILEQLCQDVPWKQRTGIREDITYQQPRLTAWYGELPYTYSRITMEPNPHWHPVLRTLKNRIEENTGHTFNSLLCNLYRNEKDSVDWHSDDEPSLGRCPIIASLSFGATRTFEMRKKPPPEENGDYTYVERVKIPLDHGTLLIMEGATQADWQHRVPKEYHSREPRVNLTFRTVYPDPRGAPW | 5.2 | – | –
5 | 42 ± 3 | 3.8 ± 0.5 | Y143F ALKBH3: ALKBH3 mutant, Tyr143 replaced with Phe (protein, UniProt Q96Q83 1-286, looked up, variant Y143F) Alpha-ketoglutarate-dependent …: MEEKRRRARVQGAWAAPVKSQAIAQPATTAKSHLHQKPGQTWKNKEHHLSDREFVFKEPQQVVRRAPEPRVIDREGVYEISLSPTGVSRVCLYPGFVDVKEADWILEQLCQDVPWKQRTGIREDITYQQPRLTAWYGELPYTFSRITMEPNPHWHPVLRTLKNRIEENTGHTFNSLLCNLYRNEKDSVDWHSDDEPSLGRCPIIASLSFGATRTFEMRKKPPPEENGDYTYVERVKIPLDHGTLLIMEGATQADWQHRVPKEYHSREPRVNLTFRTVYPDPRGAPW | – | – | ~1.4
